Article PMC7043357

Target: T1, Rop (UniProt P03051 1-63)
T1 sequence: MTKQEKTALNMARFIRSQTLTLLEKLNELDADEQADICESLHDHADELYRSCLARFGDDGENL
Test: EMSA

B1: RNA1-U6/RNA2-WT kissing dimer (structured_RNA)
RNA 1: GGCAGCUUUUUUUUGGUAGUUUUUUGCUGCC
RNA 2: GCACCGCUACCAACGGUGC
Does B1 bind?
Result: binds
